Columns and labels:
Conditions in all cases: both partners purified
CLASPIN = biological target: T1, CLASPIN (human, UniProt Q9HAW4-1 1-1339); experiment: cryo-EM structure; independent replisome preparation that also contained CLASPIN; map EMD-13494 (to be published in a separate study), model PDB 7PFO docked into the density
T1 construct: human CLASPIN; residues 284-319, 525-540 and 592-618 modelled

[1] = biological target: T2, human CDC45‐MCM‐GINS (CMG) helicase (human, UniProt P49736 1-904; P25205 1-808; P33991 1-863; P33992 1-734; Q14566 1-821; P33993 …); experiment: co-sedimentation; native glycerol gradient without cross-linker (40 mM HEPES-NaOH pH 7.5, 150 mM NaOAc, 0.5 mM TCEP, 500 µM AMP-PNP, 3 mM Mg(OAc)2), 200,000 g, 4°C, 2 h; 100 nM CMG pre-incubated with fork DNA, 1.5-fold molar excess of the other proteins; fractions on silver-stained SDS-PAGE
T2 construct: MCM2, human; MCM3, human; the construct lacks the 45 additional N-terminal amino acids of the longer isoform used in PDB 6XTX; MCM4, human; MCM5, human; MCM6, human; MCM7, human; CDC45, human; PSF1 (GINS subunit), human; PSF2 (GINS subunit), human; PSF3 (GINS subunit), human; SLD5 (GINS subunit), human; also called hsCMG; source: Hi5 insect cells co-infected with baculoviruses for MCM2-7, GINS …

TIMELESS = biological target: T3, TIMELESS (human, UniProt Q9UNS1 1-1208); experiment: cryo-EM structure; replisome reconstituted on fork DNA with AMP-PNP, isolated on a glycerol gradient with glutaraldehyde and BS3; 3.2 Å overall; a sample without CLASPIN solved at 3.4 Å
T3 construct: Stood in the structure as a subunit of m3; residues 7-803 modelled (527-684 not visualised)
T3 sequence: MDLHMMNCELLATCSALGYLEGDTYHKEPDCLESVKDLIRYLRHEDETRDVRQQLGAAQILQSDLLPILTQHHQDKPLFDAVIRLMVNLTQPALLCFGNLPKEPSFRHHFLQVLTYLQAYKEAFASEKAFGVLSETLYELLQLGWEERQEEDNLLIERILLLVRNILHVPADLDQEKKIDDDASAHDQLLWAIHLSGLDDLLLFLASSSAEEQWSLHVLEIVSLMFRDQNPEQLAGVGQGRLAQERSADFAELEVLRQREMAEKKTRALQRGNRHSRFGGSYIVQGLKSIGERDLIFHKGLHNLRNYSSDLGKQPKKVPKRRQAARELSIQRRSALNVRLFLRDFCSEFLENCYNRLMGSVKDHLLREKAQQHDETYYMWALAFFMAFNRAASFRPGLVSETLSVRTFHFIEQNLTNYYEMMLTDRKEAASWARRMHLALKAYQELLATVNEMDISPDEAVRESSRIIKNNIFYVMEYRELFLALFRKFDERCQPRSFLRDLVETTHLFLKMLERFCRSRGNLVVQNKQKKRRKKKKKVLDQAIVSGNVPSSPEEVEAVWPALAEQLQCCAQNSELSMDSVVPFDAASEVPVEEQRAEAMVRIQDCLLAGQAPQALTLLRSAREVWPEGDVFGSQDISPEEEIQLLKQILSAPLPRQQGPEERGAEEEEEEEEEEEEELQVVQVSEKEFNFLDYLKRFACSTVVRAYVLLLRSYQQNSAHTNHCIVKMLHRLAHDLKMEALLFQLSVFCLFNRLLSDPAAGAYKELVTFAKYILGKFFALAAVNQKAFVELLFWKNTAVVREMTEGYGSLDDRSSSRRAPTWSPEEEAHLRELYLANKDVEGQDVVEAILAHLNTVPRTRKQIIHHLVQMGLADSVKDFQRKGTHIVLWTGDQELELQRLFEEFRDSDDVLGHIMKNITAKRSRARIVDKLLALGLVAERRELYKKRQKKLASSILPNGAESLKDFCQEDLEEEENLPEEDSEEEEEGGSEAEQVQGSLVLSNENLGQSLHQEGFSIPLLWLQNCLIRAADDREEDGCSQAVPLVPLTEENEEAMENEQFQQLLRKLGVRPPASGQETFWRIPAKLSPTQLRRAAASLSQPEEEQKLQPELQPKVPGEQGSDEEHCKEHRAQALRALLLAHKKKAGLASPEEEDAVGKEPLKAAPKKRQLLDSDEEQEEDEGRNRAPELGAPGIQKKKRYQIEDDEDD

T1 sequence (Q9HAW4 whole entry, the tested form may be a part): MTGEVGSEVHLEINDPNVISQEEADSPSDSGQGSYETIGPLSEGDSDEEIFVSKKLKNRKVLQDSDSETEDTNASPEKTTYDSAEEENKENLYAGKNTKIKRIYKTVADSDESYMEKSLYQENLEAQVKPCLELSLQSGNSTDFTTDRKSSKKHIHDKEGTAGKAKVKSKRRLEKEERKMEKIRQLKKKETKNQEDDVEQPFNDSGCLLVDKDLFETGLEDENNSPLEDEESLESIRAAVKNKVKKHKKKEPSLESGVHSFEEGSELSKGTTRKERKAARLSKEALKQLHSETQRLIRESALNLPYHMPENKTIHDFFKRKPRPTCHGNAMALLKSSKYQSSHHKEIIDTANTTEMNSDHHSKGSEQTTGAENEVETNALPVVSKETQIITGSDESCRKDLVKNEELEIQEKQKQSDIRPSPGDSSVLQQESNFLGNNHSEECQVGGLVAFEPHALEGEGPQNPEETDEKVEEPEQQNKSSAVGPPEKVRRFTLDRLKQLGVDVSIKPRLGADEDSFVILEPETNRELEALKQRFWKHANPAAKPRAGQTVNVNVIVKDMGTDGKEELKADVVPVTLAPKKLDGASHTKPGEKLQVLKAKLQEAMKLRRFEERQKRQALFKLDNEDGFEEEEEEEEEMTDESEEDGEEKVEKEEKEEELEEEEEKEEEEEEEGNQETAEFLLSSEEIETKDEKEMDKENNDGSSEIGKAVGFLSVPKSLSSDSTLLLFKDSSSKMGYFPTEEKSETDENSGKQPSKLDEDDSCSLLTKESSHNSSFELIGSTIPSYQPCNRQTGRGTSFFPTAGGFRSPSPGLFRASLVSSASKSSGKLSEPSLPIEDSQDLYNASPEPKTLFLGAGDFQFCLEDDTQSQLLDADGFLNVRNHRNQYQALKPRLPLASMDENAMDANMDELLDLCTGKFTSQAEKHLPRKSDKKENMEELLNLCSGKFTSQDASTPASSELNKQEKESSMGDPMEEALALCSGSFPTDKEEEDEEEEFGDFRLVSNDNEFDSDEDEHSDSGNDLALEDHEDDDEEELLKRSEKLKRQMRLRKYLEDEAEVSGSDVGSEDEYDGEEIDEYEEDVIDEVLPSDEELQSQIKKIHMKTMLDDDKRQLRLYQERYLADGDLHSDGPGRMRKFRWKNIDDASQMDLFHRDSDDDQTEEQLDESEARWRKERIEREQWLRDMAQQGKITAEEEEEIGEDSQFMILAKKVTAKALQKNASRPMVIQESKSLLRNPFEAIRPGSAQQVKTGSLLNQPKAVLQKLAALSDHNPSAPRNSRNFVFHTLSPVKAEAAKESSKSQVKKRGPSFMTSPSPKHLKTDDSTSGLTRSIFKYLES

B1: TIMELESS (natural protein, human)
chain: MDLHMMNCELLATCSALGYLEGDTYHKEPDCLESVKDLIRYLRHEDETRDVRQQLGAAQILQSDLLPILTQHHQDKPLFDAVIRLMVNLTQPALLCFGNLPKEPSFRHHFLQVLTYLQAYKEAFASEKAFGVLSETLYELLQLGWEERQEEDNLLIERILLLVRNILHVPADLDQEKKIDDDASAHDQLLWAIHLSGLDDLLLFLASSSAEEQWSLHVLEIVSLMFRDQNPEQLAGVGQGRLAQERSADFAELEVLRQREMAEKKTRALQRGNRHSRFGGSYIVQGLKSIGERDLIFHKGLHNLRNYSSDLGKQPKKVPKRRQAARELSIQRRSALNVRLFLRDFCSEFLENCYNRLMGSVKDHLLREKAQQHDETYYMWALAFFMAFNRAASFRPGLVSETLSVRTFHFIEQNLTNYYEMMLTDRKEAASWARRMHLALKAYQELLATVNEMDISPDEAVRESSRIIKNNIFYVMEYRELFLALFRKFDERCQPRSFLRDLVETTHLFLKMLERFCRSRGNLVVQNKQKKRRKKKKKVLDQAIVSGNVPSSPEEVEAVWPALAEQLQCCAQNSELSMDSVVPFDAASEVPVEEQRAEAMVRIQDCLLAGQAPQALTLLRSAREVWPEGDVFGSQDISPEEEIQLLKQILSAPLPRQQGPEERGAEEEEEEEEEEEEELQVVQVSEKEFNFLDYLKRFACSTVVRAYVLLLRSYQQNSAHTNHCIVKMLHRLAHDLKMEALLFQLSVFCLFNRLLSDPAAGAYKELVTFAKYILGKFFALAAVNQKAFVELLFWKNTAVVREMTEGYGSLDDRSSSRRAPTWSPEEEAHLRELYLANKDVEGQDVVEAILAHLNTVPRTRKQIIHHLVQMGLADSVKDFQRKGTHIVLWTGDQELELQRLFEEFRDSDDVLGHIMKNITAKRSRARIVDKLLALGLVAERRELYKKRQKKLASSILPNGAESLKDFCQEDLEEEENLPEEDSEEEEEGGSEAEQVQGSLVLSNENLGQSLHQEGFSIPLLWLQNCLIRAADDREEDGCSQAVPLVPLTEENEEAMENEQFQQLLRKLGVRPPASGQETFWRIPAKLSPTQLRRAAASLSQPEEEQKLQPELQPKVPGEQGSDEEHCKEHRAQALRALLLAHKKKAGLASPEEEDAVGKEPLKAAPKKRQLLDSDEEQEEDEGRNRAPELGAPGIQKKKRYQIEDDEDD
notes: residues 7-803 modelled, 527-684 not seen; Purified together with TIPIN; written here as a single subunit for the pairwise contacts in the replisome structure
- binding result (CLASPIN): binds

B2: TIMELESS‐TIPIN heterodimer (complex, human)
chain 1: MDLHMMNCELLATCSALGYLEGDTYHKEPDCLESVKDLIRYLRHEDETRDVRQQLGAAQILQSDLLPILTQHHQDKPLFDAVIRLMVNLTQPALLCFGNLPKEPSFRHHFLQVLTYLQAYKEAFASEKAFGVLSETLYELLQLGWEERQEEDNLLIERILLLVRNILHVPADLDQEKKIDDDASAHDQLLWAIHLSGLDDLLLFLASSSAEEQWSLHVLEIVSLMFRDQNPEQLAGVGQGRLAQERSADFAELEVLRQREMAEKKTRALQRGNRHSRFGGSYIVQGLKSIGERDLIFHKGLHNLRNYSSDLGKQPKKVPKRRQAARELSIQRRSALNVRLFLRDFCSEFLENCYNRLMGSVKDHLLREKAQQHDETYYMWALAFFMAFNRAASFRPGLVSETLSVRTFHFIEQNLTNYYEMMLTDRKEAASWARRMHLALKAYQELLATVNEMDISPDEAVRESSRIIKNNIFYVMEYRELFLALFRKFDERCQPRSFLRDLVETTHLFLKMLERFCRSRGNLVVQNKQKKRRKKKKKVLDQAIVSGNVPSSPEEVEAVWPALAEQLQCCAQNSELSMDSVVPFDAASEVPVEEQRAEAMVRIQDCLLAGQAPQALTLLRSAREVWPEGDVFGSQDISPEEEIQLLKQILSAPLPRQQGPEERGAEEEEEEEEEEEEELQVVQVSEKEFNFLDYLKRFACSTVVRAYVLLLRSYQQNSAHTNHCIVKMLHRLAHDLKMEALLFQLSVFCLFNRLLSDPAAGAYKELVTFAKYILGKFFALAAVNQKAFVELLFWKNTAVVREMTEGYGSLDDRSSSRRAPTWSPEEEAHLRELYLANKDVEGQDVVEAILAHLNTVPRTRKQIIHHLVQMGLADSVKDFQRKGTHIVLWTGDQELELQRLFEEFRDSDDVLGHIMKNITAKRSRARIVDKLLALGLVAERRELYKKRQKKLASSILPNGAESLKDFCQEDLEEEENLPEEDSEEEEEGGSEAEQVQGSLVLSNENLGQSLHQEGFSIPLLWLQNCLIRAADDREEDGCSQAVPLVPLTEENEEAMENEQFQQLLRKLGVRPPASGQETFWRIPAKLSPTQLRRAAASLSQPEEEQKLQPELQPKVPGEQGSDEEHCKEHRAQALRALLLAHKKKAGLASPEEEDAVGKEPLKAAPKKRQLLDSDEEQEEDEGRNRAPELGAPGIQKKKRYQIEDDEDD
chain 2: MLEPQENGVIDLPDYEHVEDETFPPFPPPASPERQDGEGTEPDEESGNGAPVRVPPKRTVKRNIPKLDAQRLISERGLPALRHVFDKAKFKGKGHEAEDLKMLIRHMEHWAHRLFPKLQFEDFIDRVEYLGSKKEVQTCLKRIRLDLPILHEDFVSNNDEVAENNEHDVTSTELDPFLTNLSESEMFASELSRSLTEEQQQRIERNKQLALERRQAKLLSNSQTLGNDMLMNTPRAHTVEEVNTDEDQKEESNGLNEDILDNPCNDAIANTLNEEETLLDQSFKNVQQQLDATSRNITEAR
notes: TIPIN, human; no cleavage is described in the purification; source: Hi5 insect cells (baculovirus), purified (Strep-Tactin XT, HiTrap Q, Superdex 200)
- binding result [1]: binds

B3: MCM4 (natural protein, human)
chain: MSSPASTPSRRGSRRGRATPAQTPRSEDARSSPSQRRRGEDSTSTGELQPMPTSPGVDLQSPAAQDVLFSSPPQMHSSAIPLDFDVSSPLTYGTPSSRVEGTPRSGVRGTPVRQRPDLGSAQKGLQVDLQSDGAAAEDIVASEQSLGQKLVIWGTDVNVAACKENFQRFLQRFIDPLAKEEENVGIDITEPLYMQRLGEINVIGEPFLNVNCEHIKSFDKNLYRQLISYPQEVIPTFDMAVNEIFFDRYPDSILEHQIQVRPFNALKTKNMRNLNPEDIDQLITISGMVIRTSQLIPEMQEAFFQCQVCAHTTRVEMDRGRIAEPSVCGRCHTTHSMALIHNRSLFSDKQMIKLQESPEDMPAGQTPHTVILFAHNDLVDKVQPGDRVNVTGIYRAVPIRVNPRVSNVKSVYKTHIDVIHYRKTDAKRLHGLDEEAEQKLFSEKRVELLKELSRKPDIYERLASALAPSIYEHEDIKKGILLQLFGGTRKDFSHTGRGKFRAEINILLCGDPGTSKSQLLQYVYNLVPRGQYTSGKGSSAVGLTAYVMKDPETRQLVLQTGALVLSDNGICCIDEFDKMNESTRSVLHEVMEQQTLSIAKAGIICQLNARTSVLAAANPIESQWNPKKTTIENIQLPHTLLSRFDLIFLLLDPQDEAYDRRLAHHLVALYYQSEEQAEEELLDMAVLKDYIAYAHSTIMPRLSEEASQALIEAYVDMRKIGSSRGMVSAYPRQLESLIRLAEAHAKVRLSNKVEAIDVEEAKRLHREALKQSATDPRTGIVDISILTTGMSATSRKRKEELAEALKKLILSKGKTPALKYQQLFEDIRGQSDIAITKDMFEEALRALADDDFLTVTGKTVRLL
notes: MCM4, human; Stood in the structure as a subunit of m1; source: Hi5 insect cells, purified as a subunit of hsCMG
- binding result (TIMELESS): binds

B4: MCM6 (natural protein, human)
chain: MDLAAAAEPGAGSQHLEVRDEVAEKCQKLFLDFLEEFQSSDGEIKYLQLAEELIRPERNTLVVSFVDLEQFNQQLSTTIQEEFYRVYPYLCRALKTFVKDRKEIPLAKDFYVAFQDLPTRHKIRELTSSRIGLLTRISGQVVRTHPVHPELVSGTFLCLDCQTVIRDVEQQFKYTQPNICRNPVCANRRRFLLDTNKSRFVDFQKVRIQETQAELPRGSIPRSLEVILRAEAVESAQAGDKCDFTGTLIVVPDVSKLSTPGARAETNSRVSGVDGYETEGIRGLRALGVRDLSYRLVFLACCVAPTNPRFGGKELRDEEQTAESIKNQMTVKEWEKVFEMSQDKNLYHNLCTSLFPTIHGNDEVKRGVLLMLFGGVPKTTGEGTSLRGDINVCIVGDPSTAKSQFLKHVEEFSPRAVYTSGKASSAAGLTAAVVRDEESHEFVIEAGALMLADNGVCCIDEFDKMDVRDQVAIHEAMEQQTISITKAGVKATLNARTSILAAANPISGHYDRSKSLKQNINLSAPIMSRFDLFFILVDECNEVTDYAIARRIVDLHSRIEESIDRVYSLDDIRRYLLFARQFKPKISKESEDFIVEQYKHLRQRDGSGVTKSSWRITVRQLESMIRLSEAMARMHCCDEVQPKHVKEAFRLLNKSIIRVETPDVNLDQEEEIQMEVDEGAGGINGHADSPAPVNGINGYNEDINQESAPKASLRLGFSEYCRISNLIVLHLRKVEEEEDESALKRSELVNWYLKEIESEIDSEEELINKKRIIEKVIHRLTHYDHVLIELTQAGLKGSTEGSESYEEDPYLVVNPNYLLED
notes: human MCM6, subunit of hsCMG; Subunit of the CMG helicase in the replisome structure; source: Hi5 insect cells co-infected with baculoviruses for MCM2-7, GINS and CDC45; purified as hsCMG (Flag M2, Strep-Tactin XT, MonoQ)
- binding result (CLASPIN): binds

From publication PMC8634136 (The EMBO Journal, 2021)
